These results are taken from article PMC7458484.

The series deals with HBV core protein Cp185 (full-length) (hepatitis B virus (Human); compared to …, UniProt Q67855 1-185). In words: time-resolved SAXS (stopped flow), SEC capsid assembly; after mixing ~1 RNA per 6.5 Cp185 monomers; RNA in assembly buffer; RNA added to dimers in disassembly buffer immediately triggered capsid formation; Cp185 in 1.5 M GuHCl, 0.5 M LiCl, 50 mM HEPES pH 7.5, 2 mM DTT mixed 1:1 with assembly buffer 250 mM NaCl, 50 mM HEPES pH 7.5, 2 mM DTT; RNA 0.075 mg/mL final.

B1: PS1 RNA oligo (40 nt, RNA40) (structured_RNA)
RNA: GGGUUUGUUUAAAGACUGGGAGGAGUUGGGGGAGGAGCCC
Turning to B1, the binding result was “binds”.
